Biological target: 92UG037.8-gp140-Fd (HIV-1 primary isolate 92UG037.8 (clade A))
Experiment: surface plasmon resonance

Substance monoclonal antibody (mAb) 2G12 has a Kd of 17.9 nM.

Reference: patent US20180207259A1
